Results: patent US20100137214

T1: GSTcle3HV3
T1 chain: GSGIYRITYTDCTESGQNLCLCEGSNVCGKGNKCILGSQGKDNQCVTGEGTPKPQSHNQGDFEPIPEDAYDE

B1: plasmin (protein)
chain: KVYLSECKTGNGKNYRGTMSKTKNGITCQKWSSTSPHRPRFSPATHPSEGLEENYCRNPDNDPQGPWCYTTDPEKRYDYCDILECEEECMHCSGENYDGKISKTMSGLECQAWDSQSPHAHGYIPSKFPNKNLKKNYCRNPDRELRPWCFTTDPNKRWELCDIPRCTTPPPSSGPTYQCLKGTGENYRGNVAVTVSGHTCQHWSAQTPHTHNRTPENFPCKNLDENYCRNPDGKRAPWCHTTNSQVRWEYCKIPSCDSSPVSTEQLAPTAPPELTPVVQDCYHGDGQSYRGTSSTTTTGKKCQSWSSMTPHRHQKTPENYPNAGLTMNYCRNPDADKGPWCFTTDPSVRWEYCNLKKCSGTEASVVAPPPVVLLPDVETPSEEDCMFGNGKGYRGKRATTVTGTPCQDWAAQEPHRHSIFTPETNPRAGLEKNYCRNPDGDVGGPWCYTTNPRKLYDYCDVPQCAAPSFDCGKPQVEPKKCPGRVVGGCVAHPHSWPWQVSLRTRFGMHFCGGTLISPEWVLTAAHCLEKSPRPSSYKVILGAHQEVNLEPHVQEIEVSRLFLEPTRKDIALLKLSSPAVITDKVIPACLPSPNYVVADRTECFITGWGETQGTFGAGLLKEAQLPVIENKVCNRYEFLNGRVQSTELCAGHLAGGTDSCQGDSGGPLVCFEKDKYILQGVTSWGLGCARPNKPGVYVRVSRFVTWIEGVMRNN

What was measured:
AGPCHV3 = AGPCHV3 (UniProt P02763)
[1] = tested on: C-terminally His-tagged hirudin variant 3 (HV3)
HSACHV3 [2] = tested on: HSACHV3
GSTcle3HV3 = molecular target: T1, GSTcle3HV3
HSACHV3 [3] = molecular target: HSACHV3; remark: listed apart in the source

Chain of AGPCHV3, P02763 (P02763 whole entry, looked up): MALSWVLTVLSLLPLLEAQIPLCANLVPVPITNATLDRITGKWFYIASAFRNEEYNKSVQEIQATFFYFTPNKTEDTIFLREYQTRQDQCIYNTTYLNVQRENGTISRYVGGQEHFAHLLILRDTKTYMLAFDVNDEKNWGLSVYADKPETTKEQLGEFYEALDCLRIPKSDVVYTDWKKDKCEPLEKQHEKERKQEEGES
Chain of C-terminally His-tagged hirudin variant 3 (HV3) (chain, as listed by the source mutant): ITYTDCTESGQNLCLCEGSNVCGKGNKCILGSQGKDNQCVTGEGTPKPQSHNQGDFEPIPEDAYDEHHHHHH

| Molecule | rate of thrombin cleavage of a chromogenic substrate, fusion protein 376 nM without plasmin (AGPCHV3) | rate of thrombin-mediated chromogenic substrate cleavage, end value after 1500 nM HSACHV3 was combined with 600 nM plasmin (HV3 released) [1] | rate of thrombin cleavage of a chromogenic substrate, fusion protein 376 nM without plasmin (HSACHV3 [2]) | rate of thrombin-mediated chromogenic substrate cleavage, starting value for 1500 nM HSACHV3 (HSACHV3 [2]) | % thrombin activity (chromogenic substrate) after reaction of HSAHV3 with plasmin (HSAHV3) | time- and plasmin-dependent cleavage, Coomassie-stained SDS gel (4000 nM AGPCHV3, 600 nM plasmin) (AGPCHV3, P02763) | cleavage pattern by SDS-PAGE after plasmin digestion (GSTcle3HV3) | cleavage by plasmin, SDS-PAGE and autoradiography (HSACHV3 [3]) | time- and plasmin-dependent cleavage, Coomassie-stained SDS gel (1500 nM HSACHV3, 600 nM plasmin) (HSACHV3 [3]) |
| --- | --- | --- | --- | --- | --- | --- | --- | --- | --- |
| human α-thrombin | In the absence of plasmin, neither fusion protein had substantial effects upon the thrombin activity | The former reduced the rate of thrombin-mediated chromogenic substrate cleavage from 89.9% to 5.5% | In the absence of plasmin, neither fusion protein had substantial effects upon the thrombin activity | The former reduced the rate of thrombin-mediated chromogenic substrate cleavage from 89.9% to 5.5% | thrombin inhibition was unaffected by the presence of HSAHV3 following reaction with plasmin | – | – | – | – |
| B1 | – | – | – | – | – | A time- and plasmin-dependent cleavage pattern of both proteins is shown, yielding a single product for HSACHV3 and two products for AGPCHV3 | plasmin-dependent polypeptide species were detected, one of which co-migrated with unfused GST, and the other, which migrated slightly more rapidly than Pichia pastoris-derived recombinant hexahisitidinylated HV3 | HSACHV3 was cleaved by plasmin over time, reaching near complete conversion | A time- and plasmin-dependent cleavage pattern of both proteins is shown, yielding a single product for HSACHV3 and two products for AGPCHV3 |
